Experimental data reported in patent US20100222258A1 (KABUSHIKI KAISHA HAYASHIBARA SEIBUTSU KAGAKU KENKYUJO, published 2010).

T1: TNF-R1 (a protein having the amino acid sequence, Accession No. M58286 registered at GENBANK) (UniProt P19438 30-211, limits assumed)
T1 construct: also called TNF receptor having a molecular weight of 55 kilo daltons
T1 sequence (looked up): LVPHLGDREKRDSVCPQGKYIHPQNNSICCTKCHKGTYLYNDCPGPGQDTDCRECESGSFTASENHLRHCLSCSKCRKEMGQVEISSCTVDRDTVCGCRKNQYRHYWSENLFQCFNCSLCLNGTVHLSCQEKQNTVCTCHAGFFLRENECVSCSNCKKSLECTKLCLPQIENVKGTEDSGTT

T2: TNF-R2 (a protein having the amino acid sequence, Accession No. M55994 registered at GENBANK) (UniProt P20333 23-257, limits assumed)
T2 construct: also called TNF receptor with 75 kilo daltons
T2 sequence (looked up): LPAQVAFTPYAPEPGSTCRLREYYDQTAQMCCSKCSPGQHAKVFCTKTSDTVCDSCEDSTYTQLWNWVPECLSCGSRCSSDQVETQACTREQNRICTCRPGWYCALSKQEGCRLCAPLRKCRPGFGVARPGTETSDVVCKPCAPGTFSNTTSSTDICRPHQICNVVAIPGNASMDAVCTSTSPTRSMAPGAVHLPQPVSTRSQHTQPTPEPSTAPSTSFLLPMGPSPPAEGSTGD


Key:
[1] = target: T1, TNF-R1 (a protein having the amino acid …); assay: SPR (BIACORE 2000), receptor on sensor tip; grade 3 = 0.5 to 2 times that of recombinant TNF-α
Description: (§1) Using the above detector based on surface plasmon resonance effect again, the resulting clones binding to TNF-R1 (or TNF-R2) were subjected to the remaining sensor tip conjugated with TNF-R2 (or TNF-R1) to measure receptor binding affinity and select clones having a variation of receptor binding affinity. […] The resulting DNAs were digested with restrict enzymes NdeI and BamHI to obtain DNA fragments. The resulting DNA fragments were introduced into a plasmid vector containing T7 promoter region, T7 terminator region, ampicillin resistant gene region and ColE1/Ori region (product name “pET-3a”, manufactured by “Novagen®” (EMD Biosciences, Inc.)) at the position of the above restriction sites. The resulting plasmid was introduced into E. coli BL21DE3 strain to obtain a transformed E. coli for producing the TNF mutant proteins. The obtained transformed E. coli was cultured according to usual method and centrifuged to collect E. coli pellet. The resulting pellet was washed twice with TES buffer (pH 8.0) (20 mM Tris-HCl, 10 mM ethylene diamine tetraacetic acid and 0.5 M sodium chloride) and admixed with TES buffer (pH 8.0) containing 0.2 mg/ml lysozyme. The resulting suspension was sonicated according to usual manner, and centrifuged to collect a precipitate containing the produced TNF mutant protein. The resulting precipitate was treated three times in a manner of admixing with TES buffer containing 1 (w/w) % Triton X-100, removed from supernatant by centrifuging, admixed with 50 mM Tris-HCl (pH 7.0) containing 8 M guanidine hydrochloride and 50 mM dithiothreitol, with stirring for 16 hours at ambient temperature under shielded condition, and centrifuged to collect a supernatant. The resulting supernatant was gently admixed with 100 time volumes of a aqueous solution containing 1 M Tris, 0.9 (w/v) % sodium chloride, 0.4 M L-arginine chloride, 2.5 mM reduced glutathione, 0.5 mM oxidized glutathione and 0.05 (w/v) % Tween 20, and kept at 4° C. for 16 hours.

[2] = target: T2, TNF-R2 (a protein having the amino acid …); assay: as above
Description: as §1

[3] = target: T1, TNF-R1 (a protein having the amino acid …); assay: SPR (BIACORE 2000), receptor on sensor tip; grade 4 = two times or more that of recombinant TNF-α
Description: as §1

[4] = target: T2, TNF-R2 (a protein having the amino acid …); assay: SPR (BIACORE 2000), receptor on sensor tip; grade 2 = 0.5 to 0.1 time that of recombinant TNF-α
Description: as §1

[5] = target: T2, TNF-R2 (a protein having the amino acid …); assay: SPR (BIACORE 2000), receptor on sensor tip; grade 1 = 0.001 to 0.1 time that of recombinant TNF-α
Description: as §1

[6] = target: T1, TNF-R1 (a protein having the amino acid …); assay: SPR (BIACORE 2000), receptor on sensor tip; grade 2 = 0.5 to 0.1 time that of recombinant TNF-α
Description: as §1

[7] = target: T2, TNF-R2 (a protein having the amino acid …); assay: SPR (BIACORE 2000), receptor on sensor tip; grade 0 = weakened to 0.001 or less of that of recombinant TNF-α
Description: as §1

Binder	binding affinity relative to recombinant TNF-α [1]	binding affinity relative to recombinant TNF-α [4]	binding affinity relative to recombinant TNF-α [6]	further results
lysine-replaced human TNF (ligand, Parent of all clones; also called Lysine-replaced TNF; lysine-replaced mutant) VRSSSRTPSDMPVAHVVANPQAEGQLQWLNRRANALLANGVELRDNQLVVPSEGLYLIYSQVLFSGQGCPSTHVLLTHTISRIAVSYQTPVNLLSAIRSPCQRETPEGAEANPWYEPIYLGGVFQLEPGDRLSAEINRPDYLDFAESGQVYFGIIAL	0.5 to 2 fold			binding affinity relative to recombinant TNF-α [2]: 0.5 to 2 fold
TNF mutant protein of clone No. 8 (ligand, Mutant of lysine-replaced TNF, made in E. coli) VRSSSRTPSDMPVAHVVANPQAEGQLQWRNEHANALLANGVELRDNQLVVPSEGLYLIYSQVLFSGQGCPSTHVLLTHTISRIAVSYQTPVNLLSAIRSPCQRETPEGAEANPWYEPIYLGGVFQLEPGDRLSAEINRPDYLDFNNAGQVYFGIIAL			0.1 to 0.5 fold	binding affinity relative to recombinant TNF-α [5]: 0.001 to 0.1 fold
TNF mutant protein of clone No. 31 (ligand, Mutant of lysine-replaced TNF, made in E. coli) VRSSSRTPSDMPVAHVVANPQAEGQLQWLNRRANALLANGVELRDNQLVVPSEGLYLIYSQVLFSGQGCPSTHVLLTHTISRISKTYSHPVNLLSAIRSPCQRETPEGAEANPWYEPIYLGGVFQLEPGDRLSAEINRPDYLDFAESGQVYFGIIAL				binding affinity relative to recombinant TNF-α [3]: ≥ 2 fold; binding affinity relative to recombinant TNF-α [2]: 0.5 to 2 fold
TNF mutant protein of clone No. 14 (ligand, Mutant of lysine-replaced TNF, made in E. coli) VRSSSRTPSDMPVAHVVANPQAEGQLQWLNRRANALLANGVELRDNQLVVPSEGLYLIYSQVLFSGQGCPSTHVLLTHTISRIAVSYQTPVNLLSAIRSPCQRETPEGAEANPWYEPIYLGGVFQLEPGDRLSAEINRPDYLDFANDGQVYFGIIAL			0.1 to 0.5 fold	binding affinity relative to recombinant TNF-α [2]: 0.5 to 2 fold
TNF mutant protein of clone No. 9 (ligand, Mutant of lysine-replaced TNF, made in E. coli) VRSSSRTPSDMPVAHVVANPQAEGQLQWSNPMANALLANGVELRDNQLVVPSEGLYLIYSQVLFSGQGCPSTHVLLTHTISRIAVSYQTPVNLLSAIRSPCQRETPEGAEANPWYEPIYLGGVFQLEPGDRLSAEINRPDYLDFANPGQVYFGIIAL			0.1 to 0.5 fold	binding affinity relative to recombinant TNF-α [5]: 0.001 to 0.1 fold
TNF mutant protein of clone No. 7 (ligand, Mutant of lysine-replaced TNF, made in E. coli) VRSSSRTPSDMPVAHVVANPQAEGQLQWHNNTANALLANGVELRDNQLVVPSEGLYLIYSQVLFSGQGCPSTHVLLTHTISRIAVSYQTPVNLLSAIRSPCQRETPEGAEANPWYEPIYLGGVFQLEPGDRLSAEINRPDYLDFDSNGQVYFGIIAL			0.1 to 0.5 fold	binding affinity relative to recombinant TNF-α [5]: 0.001 to 0.1 fold
TNF mutant protein of clone No. 4 (ligand, Mutant of lysine-replaced TNF, made in E. coli) VRSSSRTPSDMPVAHVVANPQAEGQLQWKNAGANALLANGVELRDNQLVVPSEGLYLIYSQVLFSGQGCPSTHVLLTHTISRIAVSYQTPVNLLSAIRSPCQRETPEGAEANPWYEPIYLGGVFQLEPGDRLSAEINRPDYLDFASTGQVYFGIIAL	0.5 to 2 fold			binding affinity relative to recombinant TNF-α (grade) [7]: ≤ 0.001 times that of recombinant TNF-α
TNF mutant protein of clone No. 2 (ligand, Mutant of lysine-replaced TNF, made in E. coli) VRSSSRTPSDMPVAHVVANPQAEGQLQWTNGYANALLANGVELRDNQLVVPSEGLYLIYSQVLFSGQGCPSTHVLLTHTISRIAVSYQTPVNLLSAIRSPCQRETPEGAEANPWYEPIYLGGVFQLEPGDRLSAEINRPDYLDFAESGQVYFGIIAL	0.5 to 2 fold	0.1 to 0.5 fold		
TNF mutant protein of clone No. 5 (ligand, Mutant of lysine-replaced TNF, made in E. coli) VRSSSRTPSDMPVAHVVANPQAEGQLQWRNSHANALLANGVELRDNQLVVPSEGLYLIYSQVLFSGQGCPSTHVLLTHTISRIAVSYQTPVNLLSAIRSPCQRETPEGAEANPWYEPIYLGGVFQLEPGDRLSAEINRPDYLDFSGTGQVYFGIIAL	0.5 to 2 fold			binding affinity relative to recombinant TNF-α (grade) [7]: ≤ 0.001 times that of recombinant TNF-α

Continued, in another order:

binding affinity relative to recombinant TNF-α [1]	binding affinity relative to recombinant TNF-α [4]	binding affinity relative to recombinant TNF-α [6]	Binder	further results
	0.1 to 0.5 fold		TNF mutant protein of clone No. 32 (ligand, Mutant of lysine-replaced TNF, made in E. coli) VRSSSRTPSDMPVAHVVANPQAEGQLQWLNRRANALLANGVELRDNQLVVPSEGLYLIYSQVLFSGQGCPSTHVLLTHTISRITDRYSSPVNLLSAIRSPCQRETPEGAEANPWYEPIYLGGVFQLEPGDRLSAEINRPDYLDFAESGQVYFGIIAL	binding affinity relative to recombinant TNF-α [3]: ≥ 2 fold
	0.1 to 0.5 fold		TNF mutant protein of clone No. 16 (ligand, Mutant of lysine-replaced TNF, made in E. coli) VRSSSRTPSDMPVAHVVANPQAEGQLQWLNRRANALLANGVELRDNQLVVPSEGLYLIYSQVLFSGQGCPSTHVLLTHTISRISSTYPDPVNLLSAIRSPCQRETPEGAEANPWYEPIYLGGVFQLEPGDRLSAEINRPDYLDFAESGQVYFGIIAL	binding affinity relative to recombinant TNF-α [3]: ≥ 2 fold
		0.1 to 0.5 fold	TNF mutant protein of clone No. 15 (ligand) VRSSSRTPSDMPVAHVVANPQAEGQLQWLNRRANALLANGVELRDNQLVVPSEGLYLIYSQVLFSGQGCPSTHVLLTHTISRITNHYSNPVNLLSAIRSPCQRETPEGAEANPWYEPIYLGGVFQLEPGDRLSAEINRPDYLDFAESGQVYFGIIAL	binding affinity relative to recombinant TNF-α [5]: 0.001 to 0.1 fold
0.5 to 2 fold	0.1 to 0.5 fold		TNF mutant protein of clone No. 30 (ligand, Mutant of lysine-replaced TNF, made in E. coli) VRSSSRTPSDMPVAHVVANPQAEGQLQWLNRRANALLANGVELRDNQLVVPSEGLYLIYSQVLFSGQGCPSTHVLLTHTISRITPGYPSPVNLLSAIRSPCQRETPEGAEANPWYEPIYLGGVFQLEPGDRLSAEINRPDYLDFAESGQVYFGIIAL	
0.5 to 2 fold	0.1 to 0.5 fold		TNF mutant protein of clone No. 20 (ligand, Mutant of lysine-replaced TNF, made in E. coli) VRSSSRTPSDMPVAHVVANPQAEGQLQWLNRRANALLANGVELRDNQLVVPSEGLYLIYSQVLFSGQGCPSTHVLLTHTISRISSAYASPVNLLSAIRSPCQRETPEGAEANPWYEPIYLGGVFQLEPGDRLSAEINRPDYLDFAESGQVYFGIIAL	
0.5 to 2 fold	0.1 to 0.5 fold		TNF mutant protein of clone No. 34 (ligand, Mutant of lysine-replaced TNF, made in E. coli) VRSSSRTPSDMPVAHVVANPQAEGQLQWLNRRANALLANGVELRDNQLVVPSEGLYLIYSQVLFSGQGCPSTHVLLTHTISRISADYPHPVNLLSAIRSPCQRETPEGAEANPWYEPIYLGGVFQLEPGDRLSAEINRPDYLDFAESGQVYFGIIAL	
0.5 to 2 fold	0.1 to 0.5 fold		TNF mutant protein of clone No. 27 (ligand, Mutant of lysine-replaced TNF, made in E. coli) VRSSSRTPSDMPVAHVVANPQAEGQLQWLNRRANALLANGVELRDNQLVVPSEGLYLIYSQVLFSGQGCPSTHVLLTHTISRITPAYPRPVNLLSAIRSPCQRETPEGAEANPWYEPIYLGGVFQLEPGDRLSAEINRPDYLDFAESGQVYFGIIAL	
